T1: Sla1-2, P32790
T1 sequence (P32790 60-140, looked up): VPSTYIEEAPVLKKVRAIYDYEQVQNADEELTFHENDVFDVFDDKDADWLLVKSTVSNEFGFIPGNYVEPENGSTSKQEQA

T2: Cyk3, Q07533
T2 sequence (Q07533 1-83, looked up): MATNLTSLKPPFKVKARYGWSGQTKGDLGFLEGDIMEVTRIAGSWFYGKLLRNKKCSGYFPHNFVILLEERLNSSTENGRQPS

T3: Sla1-3, P32790
T3 sequence (P32790 344-424, looked up): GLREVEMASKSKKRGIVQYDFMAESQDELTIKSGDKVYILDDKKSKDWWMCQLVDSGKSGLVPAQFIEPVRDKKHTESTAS

T4: Bud14, P27637
T4 sequence (P27637 247-328, looked up): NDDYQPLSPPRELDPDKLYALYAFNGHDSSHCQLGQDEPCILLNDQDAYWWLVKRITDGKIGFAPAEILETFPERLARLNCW

T5: Abp1, P15891
T5 sequence (P15891 535-592, looked up): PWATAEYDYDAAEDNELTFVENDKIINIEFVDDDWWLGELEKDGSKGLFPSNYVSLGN

T6: Lsb3, P43603
T6 sequence (P43603 385-451, looked up): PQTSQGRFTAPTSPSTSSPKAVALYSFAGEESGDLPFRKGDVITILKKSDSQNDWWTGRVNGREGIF

T7: Boi2, P39969
T7 sequence (P39969 32-116, looked up): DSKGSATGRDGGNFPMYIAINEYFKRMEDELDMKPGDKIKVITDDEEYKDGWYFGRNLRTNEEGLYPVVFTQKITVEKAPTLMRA

T8: Hse1, P38753
T8 sequence (P38753 208-285, looked up): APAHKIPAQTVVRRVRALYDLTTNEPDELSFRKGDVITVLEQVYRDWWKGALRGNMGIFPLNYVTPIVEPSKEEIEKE

T9: Bzz1-2, P38822
T9 sequence (P38822 568-633, looked up): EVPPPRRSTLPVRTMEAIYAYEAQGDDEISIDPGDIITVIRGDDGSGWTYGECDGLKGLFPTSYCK

T10: Boi1, P38041
T10 sequence (P38041 1-86, looked up): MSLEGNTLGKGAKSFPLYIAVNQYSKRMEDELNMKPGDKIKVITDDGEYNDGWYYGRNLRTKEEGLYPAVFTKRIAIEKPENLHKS

T11: Bbc1, P47068
T11 sequence (P47068 1-78, looked up): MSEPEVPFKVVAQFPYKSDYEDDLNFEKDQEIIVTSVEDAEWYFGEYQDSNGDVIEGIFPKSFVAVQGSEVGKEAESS

T12: Pin3, Q06449
T12 sequence (Q06449 53-122, looked up): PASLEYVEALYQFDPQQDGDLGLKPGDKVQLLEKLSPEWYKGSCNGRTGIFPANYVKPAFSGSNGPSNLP

T13: Nbp2, Q12163
T13 sequence (Q12163 103-180, looked up): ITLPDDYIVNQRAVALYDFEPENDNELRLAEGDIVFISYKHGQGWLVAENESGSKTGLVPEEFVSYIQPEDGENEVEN

T14: Myo5, Q04439
T14 sequence (Q04439 1072-1160, looked up): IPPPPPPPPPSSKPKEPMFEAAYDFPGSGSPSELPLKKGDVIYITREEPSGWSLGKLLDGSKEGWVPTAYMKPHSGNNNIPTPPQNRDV

T15: Fus1, P11710
T15 sequence (P11710 432-512, looked up): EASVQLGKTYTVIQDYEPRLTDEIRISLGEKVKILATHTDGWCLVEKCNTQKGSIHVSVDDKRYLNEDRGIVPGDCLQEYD

T16: Hof1, Q05080
T16 sequence (Q05080 590-669, looked up): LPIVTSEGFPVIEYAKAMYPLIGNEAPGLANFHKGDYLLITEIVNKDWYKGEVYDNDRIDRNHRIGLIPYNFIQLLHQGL

T17: Lsb4, P32793
T17 sequence (P32793 402-468, looked up): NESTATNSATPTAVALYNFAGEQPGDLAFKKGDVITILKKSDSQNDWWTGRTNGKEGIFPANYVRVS

T18: Bzz1-1, P38822
T18 sequence (P38822 478-572, looked up): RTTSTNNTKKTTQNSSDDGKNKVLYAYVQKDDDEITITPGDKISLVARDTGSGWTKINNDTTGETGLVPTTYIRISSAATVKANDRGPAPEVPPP

T19: Lsb1, P53281
T19 sequence (P53281 45-122, looked up): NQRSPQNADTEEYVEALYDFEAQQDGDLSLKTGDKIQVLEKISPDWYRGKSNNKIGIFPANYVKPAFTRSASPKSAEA

T20: Pex13, P80667
T20 sequence (P80667 295-386, looked up): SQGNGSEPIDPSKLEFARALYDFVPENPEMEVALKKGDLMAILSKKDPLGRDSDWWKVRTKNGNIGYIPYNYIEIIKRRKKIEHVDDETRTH

T21: Cdc25, P04821
T21 sequence (P04821 50-136, looked up): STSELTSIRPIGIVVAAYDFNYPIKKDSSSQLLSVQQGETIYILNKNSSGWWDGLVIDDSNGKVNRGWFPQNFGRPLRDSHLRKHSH


Legend:
Experiment in all cases: SPOT array
Rvs167, P39743 = conditions: median of control spots 2707
Sequence of Rvs167, P39743 (P39743 419-482): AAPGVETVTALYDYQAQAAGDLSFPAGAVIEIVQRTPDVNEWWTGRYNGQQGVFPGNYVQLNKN

Sla1-2, P32790 = target: T1, Sla1-2, P32790; conditions: median of control spots 712
Sho1, P40073 = conditions: median of control spots 1148
Sequence of Sho1, P40073 (P40073 287-367): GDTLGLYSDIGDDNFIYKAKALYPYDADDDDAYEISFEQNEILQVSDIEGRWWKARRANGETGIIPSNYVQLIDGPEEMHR

Cyk3, Q07533 = target: T2, Cyk3, Q07533; conditions: median of control spots 1451
Sla1-3, P32790 = target: T3, Sla1-3, P32790; conditions: median of control spots 5475
Bud14, P27637 = target: T4, Bud14, P27637; conditions: median of control spots 956
Abp1, P15891 = target: T5, Abp1, P15891; conditions: median of control spots 935
Lsb3, P43603 = target: T6, Lsb3, P43603; conditions: median of control spots 406
Boi2, P39969 = target: T7, Boi2, P39969; conditions: median of control spots 1161
Hse1, P38753 = target: T8, Hse1, P38753; conditions: median of control spots 1727
Bzz1-2, P38822 = target: T9, Bzz1-2, P38822; conditions: median of control spots 4538
Boi1, P38041 = target: T10, Boi1, P38041; conditions: median of control spots 1162
Bbc1, P47068 = target: T11, Bbc1, P47068; conditions: median of control spots 796
Pin3, Q06449 = target: T12, Pin3, Q06449; conditions: median of control spots 2171
Nbp2, Q12163 = target: T13, Nbp2, Q12163; conditions: median of control spots 357
Myo5, Q04439 = target: T14, Myo5, Q04439; conditions: median of control spots 471
GST = conditions: median of control spots 978
Fus1, P11710 = target: T15, Fus1, P11710; conditions: median of control spots 1200
Hof1, Q05080 = target: T16, Hof1, Q05080; conditions: median of control spots 4086
Lsb4, P32793 = target: T17, Lsb4, P32793; conditions: median of control spots 397
Bzz1-1, P38822 = target: T18, Bzz1-1, P38822; conditions: median of control spots 4446
Lsb1, P53281 = target: T19, Lsb1, P53281; conditions: median of control spots 388
Bem1-2, P29366 = conditions: median of control spots 4347
Sequence of Bem1-2, P29366 (P29366 139-227): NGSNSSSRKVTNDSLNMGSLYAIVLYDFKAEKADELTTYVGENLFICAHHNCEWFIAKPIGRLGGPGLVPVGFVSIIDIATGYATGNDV

Myo3, P36006 = conditions: median of control spots 468
Bem1-1, P29366 = conditions: median of control spots 4282
Sequence of Bem1-1, P29366 (P29366 55-141): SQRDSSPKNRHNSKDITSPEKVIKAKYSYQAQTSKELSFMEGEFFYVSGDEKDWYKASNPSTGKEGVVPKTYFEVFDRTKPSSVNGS

Pex13, P80667 = target: T20, Pex13, P80667; conditions: median of control spots 1341
Cdc25, P04821 = target: T21, Cdc25, P04821; conditions: median of control spots 969

| SPOT intensity (Rvs167, P39743) | SPOT intensity (Sla1-2, P32790) | SPOT intensity (Sho1, P40073) | SPOT intensity (Cyk3, Q07533) | SPOT intensity (Sla1-3, P32790) | SPOT intensity (Bud14, P27637) | SPOT intensity (Abp1, P15891) | SPOT intensity (Lsb3, P43603) | SPOT intensity (Boi2, P39969) | SPOT intensity (Hse1, P38753) | SPOT intensity (Bzz1-2, P38822) | SPOT intensity (Boi1, P38041) | SPOT intensity (Bbc1, P47068) | SPOT intensity (Pin3, Q06449) | SPOT intensity (Nbp2, Q12163) | SPOT intensity (Myo5, Q04439) | SPOT intensity (GST) | SPOT intensity (Fus1, P11710) | SPOT intensity (Hof1, Q05080) | SPOT intensity (Lsb4, P32793) | Binder | other results |
| --- | --- | --- | --- | --- | --- | --- | --- | --- | --- | --- | --- | --- | --- | --- | --- | --- | --- | --- | --- | --- | --- |
| 3400 | 0 | 31 | 0 | 459 | 16 | 139 | 183 | 1 | 9 | 60 | 2 | 248 | 12 | 46 | 0 | 0 | 0 | 18 | 333 | SNRRPVPRRPSQPLN | SPOT intensity (Bzz1-1, P38822): 0; SPOT intensity (Lsb1, P53281): 576; SPOT intensity (Bem1-2, P29366): 29; SPOT intensity (Myo3, P36006): 3; SPOT intensity (Bem1-1, P29366): 1; SPOT intensity (Pex13, P80667): 129; SPOT intensity (Cdc25, P04821): 35 |
| 3 | 1 | 52 | 3 | 38 | 13 | 46 | 0 | 2 | 16 | 8 | 1 | 15 | 11 | 11 | 0 | 1 | 3 | 4 | 1 | TIRRRAPLSLLESHT | SPOT intensity (Bzz1-1, P38822): 3; SPOT intensity (Lsb1, P53281): 29; SPOT intensity (Bem1-2, P29366): 4; SPOT intensity (Myo3, P36006): 0; SPOT intensity (Bem1-1, P29366): 2; SPOT intensity (Pex13, P80667): 3; SPOT intensity (Cdc25, P04821): 13 |
| 9 | 6 | 60 | 12 | 25 | 12 | 204 | 52 | 6 | 8 | 3 | 1 | 377 | 2 | 67 | 1 | 4 | 19 | 6 | 34 | RSVKRPRRAPRPVVS | SPOT intensity (Bzz1-1, P38822): 0; SPOT intensity (Lsb1, P53281): 94; SPOT intensity (Bem1-2, P29366): 15; SPOT intensity (Myo3, P36006): 11; SPOT intensity (Bem1-1, P29366): 3; SPOT intensity (Pex13, P80667): 0; SPOT intensity (Cdc25, P04821): 20 |
| 0 | 0 | 39 | 7 | 35 | 24 | 103 | 2 | 0 | 17 | 0 | 0 | 348 | 9 | 11 | 0 | 5 | 17 | 5 | 1 | RRTRLRPPTPLSQLL | SPOT intensity (Bzz1-1, P38822): 2; SPOT intensity (Lsb1, P53281): 215; SPOT intensity (Bem1-2, P29366): 15; SPOT intensity (Myo3, P36006): 6; SPOT intensity (Bem1-1, P29366): 2; SPOT intensity (Pex13, P80667): 4; SPOT intensity (Cdc25, P04821): 24 |
| 0 | 3 | 116 | 4 | 22 | 2 | 78 | 3 | 0 | 10 | 16 | 2 | 37 | 9 | 5 | 3 | 6 | 2 | 4 | 3 | QRKSLRRPTLSKPAV | SPOT intensity (Bzz1-1, P38822): 4; SPOT intensity (Lsb1, P53281): 32; SPOT intensity (Bem1-2, P29366): 1; SPOT intensity (Myo3, P36006): 10; SPOT intensity (Bem1-1, P29366): 0; SPOT intensity (Pex13, P80667): 3; SPOT intensity (Cdc25, P04821): 7 |
| 3 | 37 | 259 | 12 | 128 | 36 | 270 | 35 | 12 | 41 | 16 | 14 | 235 | 70 | 104 | 10 | 9 | 92 | 10 | 25 | RMVRRRPLRVQFSAR | SPOT intensity (Bzz1-1, P38822): 4; SPOT intensity (Lsb1, P53281): 60; SPOT intensity (Bem1-2, P29366): 27; SPOT intensity (Myo3, P36006): 50; SPOT intensity (Bem1-1, P29366): 6; SPOT intensity (Pex13, P80667): 17; SPOT intensity (Cdc25, P04821): 94 |

Reference: publication PMC2756588
